Tested on: MS2 coat protein
Test: apparent KD of MS2 coat protein; designed switch direction (-1 OFF switch, 1 ON switch): 1; higher = weaker reporter binding
Outline: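 RNA switches sharing common flanks were transcribed by stalled E. coli RNA polymerase on Illumina chips. A doubling series of SNAP-549-labelled MS2 coat protein, from 0.7 or 1.5 nM to 3 µM, was applied in Tris-HCl pH 7.5 buffer with KCl, MgCl2, BSA, DTT, tRNA and Tween-20. Each step lasted 0.8–1.5 h at the bottom of the series and 10–20 min at the top. Normalised cluster fluorescence was curve-fitted, giving apparent KD as the per-design median over clusters.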

[1] = Eterna round: R95, input ligand: FMN 200 uM
[2] = Eterna round: R95, input ligand: microRNA oligo, concentration not stated
[3] = Eterna round: R95, input ligand: none
[4] = input ligand: microRNA oligo, concentration not stated

Sequence	apparent KD of MS2 coat protein [1]	apparent KD of MS2 coat protein [2]	apparent KD of MS2 coat protein [3]	apparent KD of MS2 coat protein (input ligand: FMN 200 uM)	apparent KD of MS2 coat protein [4]	apparent KD of MS2 coat protein (input ligand: none)
AGUCCAGCCUGAGCUGGACUGAAGCAUGUACAUGAGGAUCACCCAUGUUCAUGUACAGGCUUUUUGCUCGUCUUAUG [JL-shm-2.02 JL mod] (puzzle: Sensor for hsa-mir-208a)	842 nM	18.2 nM	879 nM			
GGUAGGUUACUACCAAACAUGAGGAUCACCCAUGUAAGUGGGAAGGAUAUGGUACCUAAAAGGUACCAGAAGGUCCAAUUAAUU [Mat - Same State NG 3 - JL Mod - D98] (Eterna round: R96, puzzle: Same State NG 3)				188 nM	436 nM	584 nM
GUGGCACAUGAGGAUCACCCAUGUGGGUAGAACAUAGGAUAUCACCAACAAAAUACCCGGUGAGAAGGAUGAUGCC [Esanesdi] (puzzle: Same State 1)	118 nM	121 nM	161 nM			
AGUGGAGCCUGAGCUCCACAAAAGCAUGUACAUGAGGAUCACCCAUGUCAUGUACAAGCUUUUUGCUCGUCUUAAAA [Mat - hsa-mir-208a - Mod of JL - D18] (puzzle: Sensor for hsa-mir-208a)	536 nM	18.8 nM	423 nM			
UGUUUGUUGUGAGGAUAUACGUACACCCUACAUGAGGAUCACCCAUGUUGUUCCCUUGAUUGUUGGUAGAAGGCACUUGGUUAU [JR_SSNG2_Sub049] (Eterna round: R96, puzzle: Same State NG 2)				216 nM	122 nM	118 nM
UGGCUCAGACGAGGAUAUAUGUCUCGAGCUUCGGCUCGAGACAUGAGGAUCACCCAUGUAAUAACAUAGAAGGCGUCUGAGCCA [SSNG2/1-A2] (Eterna round: R96, puzzle: Same State NG 2)				22.1 nM	25.2 nM	37.2 nM
ACCCAAAAUACAUGGGAACAAGCUUUUUAACAUGAGGAUCACCCAUGUACUCGUCUUAUAAGCAGUCGAAAGACUGC [hsa-mir-208a sensor: 113] (Eterna round: R96, puzzle: Sensor for hsa-mir-208a)				563 nM	14.6 nM	518 nM
AACAAUCUAUCUGAGGAUAUCAUGAAAAAAACAUGAGGAUCACCCAUGUGCAGGAAAACUGCAUAUGAGAAGGCAGAUAGAUUGA [salish99_SS2_r3_001] (puzzle: Same State 2)	20.6 nM	484 nM	741 nM			
UCUUGGUUUUUGCUCGUUUUUUGUGUUGAACAUGAGGAUCACCCAUGUAUUGUACGGUCCAGUUUAGUGGUAAUCCG [JMF 69] (puzzle: Sensor for hsa-mir-208a)	33.9 nM	20.6 nM	36.8 nM			
AUAUGAGCUAUGGAGGAUAUCCAUAACAAGACAUGAGGAUCACCCAUGUAAUCAAAACAAUAAUGGGAGAAGGCCAUAGCUCAAU [SS 2 M47] (Eterna round: R96, puzzle: Same State 2)					46.9 nM	
GGGAGAGACGUAGGAUAUGGAAGAAGAUAGAGACUAGAAGGGUGAACAUGAGAAUCGAAGUGUAAAGUGAGAUGAGGUGGGAGA [iteri-1] (Eterna round: R96, puzzle: Same State NG 1)				26.5 nM	16.9 nM	36.9 nM
GGGUAGAUUUGAGGAUAUCCUUAACCAACAUGAGGAUCACCCAUGUCCAAAAGAGUUCAUUUACCGGAGAAGGCAGAUGCACCC [Eternabot solution 50] (Eterna round: R96, puzzle: Same State NG 2)				74.7 nM	61.4 nM	86.4 nM
GGUACAGUUACAGGAUAUGCUAUCCUUUGGGUAGCAGAAGGGUGGUAACAUGAGGAUCACCCAUGUGUGCCAGGGCGUGAGCCC [JL SSNG1 1.99] (Eterna round: R96, puzzle: Same State NG 1)				502 nM	387 nM	700 nM
CUCAAACAUGAGGAUCACCCAUGUGUUGUCAUGGGAGGAUAUCUAAGUUCGUUGUAUUCGGGAGAAGGCCUAUGUC [× ×•×ª×• ×ž×“×™× ×” × ×—×ª-10] (puzzle: Same State 1)		199 nM				
GGAAUAUGAUGUUACAUGAGGAUCACCCAUGUAGUAAUAACUAAGGAUAUCUGAAAAGGAGGAGAAGAGAAGGUAGGAUCAUAA [AK SSNG3-V2-10.1] (Eterna round: R96, puzzle: Same State NG 3)				13.3 nM	22.5 nM	33.3 nM
UUAAUUAAUUAAUUAUACAUGAGGAUCACCCAUGUAAGUGAUCAGGAUAUCAGCUCGAAUAGAGCUGAGAAGGGAUCCAUGUAA [SSNG3/14-A1] (Eterna round: R96, puzzle: Same State NG 3)					72.7 nM	
GGUAAGAAUUAAGGAUAUUGAUUACAUAUGUUUAACAUGAGGAUCACCCAUGUGGGUUGCGGUAUCGAGAAGGUAAAAUAAUAG [Mat - same State NG 2 - JL mod - D83] (Eterna round: R96, puzzle: Same State NG 2)				145 nM	170 nM	170 nM
GAGUGGAGGAGAGGAUAUACAAUGAUAAUCACAGUAGAAGGUUCUAACAUGAGGAUCACCCAUGUAGGACUAUUCCUGAGAGUU [Parity 50 - Jieux - Same State NG 1] (Eterna round: R96, puzzle: Same State NG 1)				10.8 nM	9.56 nM	12.8 nM
CAGAGCCCAUGGGCCUGACAUGAGGAUCACCCAUGUGGCUUUGAGGAUAUAAGCGGAAACAGCGCUUAGAAGGCGAAGCCUAAC [Rearisve] (Eterna round: R96, puzzle: Same State NG 3)				157 nM	14.1 nM	41.9 nM
UGCUAGGAUAUCUUGAGGAUCACCCAGGAGAAGGAGUAAAGUUAGGAUAUCCUGAGGAUCACCCAGGAGAAGGAGCACAUACUC [pwkr ssNG3 DX 2xF5 +2xFMN.14] (Eterna round: R96, puzzle: Same State NG 3)				50.7 nM	79.8 nM	58.4 nM
AAGAAAUCCGCAGGAUAUCCUAAGCCGGGCUUAGGAGAAGGGUGGCCACAUGAGGAUCACCCAUGUAAAGGCUGAAUCACAGCC [Disois] (Eterna round: R96, puzzle: Same State NG 1)				662 nM	268 nM	491 nM
ACAUGAGAGUGAGGAUAUCAUGUACCUACAUGUGACAUGAGGAUCACCCAUGUGGUAAGUAUGACUGAGAAGGCACAGAUAUGU [Equivalance 90 - Jieux - Same State NG 2] (Eterna round: R96, puzzle: Same State NG 2)				70.3 nM	267 nM	889 nM
UUUCUUCUCGUAGGAUAUGUAGGAUAUGCCUACAUGAGGAUCACCCAUGUUCGCAUGGCAGAAGGACAGAAGGACGAUCACCCU [pwkr ssNG2 2FMN + 1F5.9] (Eterna round: R96, puzzle: Same State NG 2)				55.4 nM	234 nM	502 nM
CUUUUUAAUGCAGGAUAUGAUCAACAUGAGGAUCACCCAUGUGGUGUUGUGAGUAAGGAGAGUGAUCAGAAGGGCAUCUUCUCA [SS-NG2-LRO05] (Eterna round: R96, puzzle: Same State NG 2)				301 nM	133 nM	169 nM
GGAGCCAAGGCAGGAUAUUCAUUUAAAUAAACAUGAGGAUCACCCAUGUAGGCCAGAAGGCCUUGGGAGAAGGGCCAUGGCUCG [Xeonanis - 13 mod7] (Eterna round: R96, puzzle: Same State NG 2)				17.7 nM	72.8 nM	88.1 nM
GGUACAUGAGGAUCACCCAUGUCAAAGGCACCGUGCAGACUGGAGGAUAUCACAGCAGAAAGCUGUGAGAAGGCCGUGUAAGCG [Eternabot solution 17] (Eterna round: R96, puzzle: Same State NG 3)				17.4 nM	24.6 nM	42.9 nM
AACAAUCUAUCUGAGGAUAUCAUGAAAUAAACAUGAGGAUCACCCAUGUGCAGGUAAACUGCAUAUGAGAAGGCAGAUAGAUUGA [salish99_ss2_r3_040] (puzzle: Same State 2)	60.1 nM	314 nM	571 nM			
GCUCCGCAAUACUUUCACAUGAGGAUCACCCAUGUUCACGUUAAGGAUAUCUAUUGUGAGACAGUAGAGAAGGUAGCGAGCGAC [Eternabot solution 11] (Eterna round: R96, puzzle: Same State NG 3)				25.7 nM	15.2 nM	24.2 nM
AGUCCAGCAUGAGCUGGACAAAAGCAUGUACAUGAGGAUCACCCAUGUUCAUGUACAAGCUUUUUGCUCGUCUUAAU [Mat - hsa-mir-208a - Mod of JL - 61] (puzzle: Sensor for hsa-mir-208a)	549 nM	15.9 nM	698 nM			
ACAUGAGAGAUAGGAUAUCUUGUACCUACAUGUGACAUGAGGAUCACCCAUGUGGUAAGUAUGAGGGAGAAGGAUCAGAUAUGU [Equivalence 42 - Jieux - Same State NG 2] (Eterna round: R96, puzzle: Same State NG 2)				29.6 nM	26.4 nM	45.2 nM

Reference: the supplement of paper PMC9170038
